For this assay, the target named is T1, recombinant HDMX (amino acids 1-490 of SEQ ID NO:104) (Homo sapiens, UniProt O15151).
T1 construct: thioredoxin (N, cleaved yes); S tag (N, cleaved yes); hexahistidine (N, cleaved yes); made in house; host or cells: E. coli (inferred: pET32-LIC vector, handled as described for HDM2 in BL21(DE3))
T1 sequence (O15151 1-490): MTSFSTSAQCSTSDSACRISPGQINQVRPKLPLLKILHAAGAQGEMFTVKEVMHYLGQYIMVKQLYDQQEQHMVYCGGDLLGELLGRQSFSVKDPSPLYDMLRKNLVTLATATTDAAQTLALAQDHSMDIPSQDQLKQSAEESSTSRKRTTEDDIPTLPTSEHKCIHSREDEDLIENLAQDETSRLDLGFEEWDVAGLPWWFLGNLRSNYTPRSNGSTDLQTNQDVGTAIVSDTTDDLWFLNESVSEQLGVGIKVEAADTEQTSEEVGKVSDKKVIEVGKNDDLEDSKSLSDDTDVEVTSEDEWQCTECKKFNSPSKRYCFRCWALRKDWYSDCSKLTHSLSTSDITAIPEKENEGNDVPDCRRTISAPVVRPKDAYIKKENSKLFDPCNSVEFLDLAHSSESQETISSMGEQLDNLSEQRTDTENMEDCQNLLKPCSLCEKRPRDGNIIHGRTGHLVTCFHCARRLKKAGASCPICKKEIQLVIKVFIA
The experiment in a line: Competitive streptavidin pull-down of biotinylated peptides with 1:1 recombinant HDM2/HDMX mixture, HDMX western. The following applies: biotinylated stapled peptide, 1:1 mixture of recombinant HDM2 and HDMX. It is filed as binding.

Bridges are numbered along the chain shown (N, C = ends). [ ]: non-standard residue; d: D form. The star is where a group is joined. Biotin = O=C1N[C@H]2[C@H](CS[C@H]2CCCCC(=O)*)N1; R8 = C=CCCCCCC[C@@](C)(N)C(=O)O; S5 = C=CCCC[C@](C)(N)C(=O)O

For the substance “ATSP-7041 B26C (Biotin-LTF[R8]EYWAQC[S5]SAA-NH2; staple 4-11; SMILES CC(C)C[C@H](NC(=O)CCCC[C@@H]1SC[C@@H]2NC(=O)N[C@@H]21)C(=O)N[C@H](C(=O)N[C@@H](Cc1ccccc1)C(=O)N[C@]1(C)CCCCCCC=CCCC[C@@](C)(C(=O)N[C@@H](CO)C(=O)N[C@@H](C)C(=O)N[C@@H](C)C(N)=O)NC(=O)[C@H](CS)NC(=O)[C@H](CCC(N)=O)NC(=O)[C@H](C)NC(=O)[C@H](Cc2c[nH]c3ccccc23)NC(=O)[C@H](Cc2ccc(O)cc2)NC(=O)[C@H](CCC(=O)O)NC1=O)[C@@H](C)O)”, the “HDMX versus HDM2 binding selectivity” value was “HDMX selectivity over HDM2”.

Take “ATSP-7041 B26D (Biotin-LTF[R8]EYWAQD[S5]SAA-NH2; staple 4-11; SMILES CC(C)C[C@H](NC(=O)CCCC[C@@H]1SC[C@@H]2NC(=O)N[C@@H]21)C(=O)N[C@H](C(=O)N[C@@H](Cc1ccccc1)C(=O)N[C@]1(C)CCCCCCC=CCCC[C@@](C)(C(=O)N[C@@H](CO)C(=O)N[C@@H](C)C(=O)N[C@@H](C)C(N)=O)NC(=O)[C@H](CC(=O)O)NC(=O)[C@H](CCC(N)=O)NC(=O)[C@H](C)NC(=O)[C@H](Cc2c[nH]c3ccccc23)NC(=O)[C@H](Cc2ccc(O)cc2)NC(=O)[C@H](CCC(=O)O)NC1=O)[C@@H](C)O)”: the “HDMX versus HDM2 binding selectivity” value is recorded as “HDMX selectivity over HDM2”.

Turning to “ATSP-7041 B26G (Biotin-LTF[R8]EYWAQG[S5]SAA-NH2; staple 4-11; SMILES CC(C)C[C@H](NC(=O)CCCC[C@@H]1SC[C@@H]2NC(=O)N[C@@H]21)C(=O)N[C@H](C(=O)N[C@@H](Cc1ccccc1)C(=O)N[C@]1(C)CCCCCCC=CCCC[C@@](C)(C(=O)N[C@@H](CO)C(=O)N[C@@H](C)C(=O)N[C@@H](C)C(N)=O)NC(=O)CNC(=O)[C@H](CCC(N)=O)NC(=O)[C@H](C)NC(=O)[C@H](Cc2c[nH]c3ccccc23)NC(=O)[C@H](Cc2ccc(O)cc2)NC(=O)[C@H](CCC(=O)O)NC1=O)[C@@H](C)O)”, the “HDMX versus HDM2 binding selectivity” value is given as “HDMX selectivity over HDM2”. For the setting “listed as SEQ ID NO:61”, the “HDMX versus HDM2 binding selectivity” value is on record as “selectivity to HDMX”.

Consider “ATSP-7041 B26K (Biotin-LTF[R8]EYWAQK[S5]SAA-NH2; staple 4-11; SMILES CC(C)C[C@H](NC(=O)CCCC[C@@H]1SC[C@@H]2NC(=O)N[C@@H]21)C(=O)N[C@H](C(=O)N[C@@H](Cc1ccccc1)C(=O)N[C@]1(C)CCCCCCC=CCCC[C@@](C)(C(=O)N[C@@H](CO)C(=O)N[C@@H](C)C(=O)N[C@@H](C)C(N)=O)NC(=O)[C@H](CCCCN)NC(=O)[C@H](CCC(N)=O)NC(=O)[C@H](C)NC(=O)[C@H](Cc2c[nH]c3ccccc23)NC(=O)[C@H](Cc2ccc(O)cc2)NC(=O)[C@H](CCC(=O)O)NC1=O)[C@@H](C)O)”, for which the “HDMX versus HDM2 binding selectivity” value is “HDMX selectivity over HDM2”. Moreover, the “HDMX versus HDM2 binding selectivity” value (listed as SEQ ID NO:64) was “selectivity to HDMX”.

Take “ATSP-7041 B26N (Biotin-LTF[R8]EYWAQN[S5]SAA-NH2; staple 4-11; SMILES CC(C)C[C@H](NC(=O)CCCC[C@@H]1SC[C@@H]2NC(=O)N[C@@H]21)C(=O)N[C@H](C(=O)N[C@@H](Cc1ccccc1)C(=O)N[C@]1(C)CCCCCCC=CCCC[C@@](C)(C(=O)N[C@@H](CO)C(=O)N[C@@H](C)C(=O)N[C@@H](C)C(N)=O)NC(=O)[C@H](CC(N)=O)NC(=O)[C@H](CCC(N)=O)NC(=O)[C@H](C)NC(=O)[C@H](Cc2c[nH]c3ccccc23)NC(=O)[C@H](Cc2ccc(O)cc2)NC(=O)[C@H](CCC(=O)O)NC1=O)[C@@H](C)O)”: the “HDMX versus HDM2 binding selectivity” value is “HDMX selectivity over HDM2”.

As to “ATSP-7041 B26P (Biotin-LTF[R8]EYWAQP[S5]SAA-NH2; staple 4-11; SMILES CC(C)C[C@H](NC(=O)CCCC[C@@H]1SC[C@@H]2NC(=O)N[C@@H]21)C(=O)N[C@H](C(=O)N[C@@H](Cc1ccccc1)C(=O)N[C@]1(C)CCCCCCC=CCCC[C@@](C)(C(=O)N[C@@H](CO)C(=O)N[C@@H](C)C(=O)N[C@@H](C)C(N)=O)NC(=O)[C@@H]2CCCN2C(=O)[C@H](CCC(N)=O)NC(=O)[C@H](C)NC(=O)[C@H](Cc2c[nH]c3ccccc23)NC(=O)[C@H](Cc2ccc(O)cc2)NC(=O)[C@H](CCC(=O)O)NC1=O)[C@@H](C)O)”, the “HDMX versus HDM2 binding selectivity” value is reported as “HDMX selectivity over HDM2”.

The record behind these values is patent US20230192789A1, “STRUCTURALLY-STABILIZED AND HDMX-SELECTIVE P53 PEPTIDES AND USES THEREOF” (Dana-Farber Cancer Institute, Inc., priority 2020, published 2023).
